How the values were obtained:
[1] = molecular target: T1, native human MET on living human cells (human, UniProt P08581 25-1390); experiment: cell-based or functional assay
[2] = molecular target: T2, native mouse MET on living mouse cells (mouse, UniProt P16056 25-1379); experiment: cell-based or functional assay
[3] = molecular target: human MET ECD mutant D (mutations 1, 2) (human) (UniProt P08581); experiment: ELISA, MET ECD mutant in solid phase, mAb 0-50 nM
[4] = molecular target: human MET ECD mutant E (mutations 2, 3, 4) (human) (UniProt P08581); experiment: ELISA, MET ECD mutant in solid phase, mAb 0-50 nM
[5] = molecular target: human MET ECD mutant H (mutations 2, 4) (human) (UniProt P08581); experiment: ELISA, MET ECD mutant in solid phase, mAb 0-50 nM
[6] = molecular target: human MET ECD mutant A (mutations 1, 2, 3) (human) (UniProt P08581); experiment: ELISA, MET ECD mutant in solid phase, mAb 0-50 nM
[7] = molecular target: T3, human MET extracellular domain (ECD) (human, UniProt P08581 25-932); experiment: ELISA, MET ECD in solid phase, mAb 0-50 nM
T3 construct: range 1-932; recombinant ECD; also called hMET; human MET ECD
Procedure: Using human MET as a template, we mutagenized each of these residues in different permutations, generating a series of MET mutants that are fully human except for specific residues, which are llama. Next, we tested the affinity of selected SEMA-binding mAbs (71D6, 71C3, 71D4, 71A3, 71G2) and PSI-binding mAbs (76H10 and 71G3) for these MET mutants by ELISA. To this end, the various MET proteins were immobilized in solid phase (100 ng/well in a 96-well plate) and then exposed to increasing concentrations of antibodies (0-50 nM) solution. […] Wild-type human MET was used as positive control.
TABLE 18 The epitopes of MET responsible for agonistic antibody binding represent residues conserved among H. sapiens, M. musculus, R. norvegicus, M. fascicularis but not among the same species and L. glama. The relevance of residues conserved among human, mouse, rat, cynomolgus monkey but not llama MET for binding to agonistic mAbs was tested by ELISA. Wild-type (WT) or mutant (MT) human MET ECD was immobilized in solid phase and exposed to increasing concentrations of mAbs in solution. […] All binding values were normalized to the WT protein and are expressed as % binding (EMAX) compared to WT MET.

[8] = molecular target: T4, mouse MET-Fc chimeric protein (R&D Systems) (mouse, UniProt P16056 25-929, limits assumed); experiment: competition ELISA, mMET-Fc in solid phase, competitor 0.3 nM biotinylated mHGF
T4 construct: bought (R&D Systems); also called mMET; not shown: Fc
Procedure: (§1) To investigate along this line, we tested the competition between mAbs and HGF by ELISA. Recombinant human and mouse HGF (R&D Systems) were biotinylated at the N-terminus using NHS-LC-biotin (Thermo Scientific). MET-Fc protein, either human or mouse (R&D Systems), was immobilized in solid phase and then exposed to 0.3 nM biotinylated HGF, either human or mouse, in the presence of increasing concentrations of antibodies (0-120 nM).
(§2) A MET-Fc chimeric protein (either human or mouse) was immobilized in solid phase and exposed to a fixed concentration of biotinylated HGF (either human or mouse), in the presence of increasing concentrations of antibodies. […] Antibody-HGF competition is expressed as IC₅₀ (the concentration that achieves 50% competition) and IMAX (the maximum % competition reached at saturation).

[9] = molecular target: T2, native mouse MET on living mouse cells; experiment: flow cytometry, MLP29 cells
Procedure: (§3) We also analysed whether chimeric anti-MET antibodies bound to native human and mouse MET in living cells. […] Antibody binding to cells was analysed by flow cytometry using phycoerythrin-conjugated anti-human IgG1 antibodies (eBioscience) and a CyAn ADP analyser (Beckman Coulter). As a positive control for human MET binding, we used a commercial mouse anti-human MET antibody (R&D Systems) and phycoerythrin-conjugated anti-mouse IgG1 antibodies (eBioscience). As a positive control for mouse MET binding we used a commercial goat anti-mouse MET antibody (R&D Systems) and phycoerythrin-conjugated anti-goat IgG1 antibodies (eBioscience). […] Consistent with the data obtained in ELISA, maximal binding (EMAX) varied depending on antibody, but was similar in human and mouse cells.

[10] = molecular target: T1, native human MET on living human cells; experiment: cell-based or functional assay; remark: listed apart in the source
[11] = molecular target: T2, native mouse MET on living mouse cells; experiment: cell-based or functional assay; remark: listed apart in the source
[12] = molecular target: T5, human MET-Fc chimeric protein (R&D Systems) (human, UniProt P08581 25-932); experiment: competition ELISA, hMET-Fc in solid phase, competitor 0.3 nM biotinylated hHGF
T5 construct: extracellular domain; bought (R&D Systems); also called hMET; not shown: Fc portion of human IgG1
Procedure: as §1, §2

[13] = molecular target: T1, native human MET on living human cells; experiment: flow cytometry, A549 cells
Procedure: as §3

| Binder | protection from staurosporine, viability EC50, MCF10A [1] | protection from staurosporine, viability EMAX, MCF10A [1] | protection from staurosporine, viability EC50, MLP29 [2] | protection from staurosporine, viability EMAX, MLP29 [2] | % binding (EMAX) compared to WT MET [3] | % binding (EMAX) compared to WT MET [4] | % binding (EMAX) compared to WT MET [5] | % binding (EMAX) compared to WT MET [6] | % binding (EMAX) compared to WT MET [7] | IMAX (maximum % competition) [8] | EMAX (% relative to control) [9] | cell scattering score, HPAF-II, 0.001 nM [10] | cell scattering score, HPAF-II, 0.004 nM [10] | cell scattering score, HPAF-II, 0.012 nM [10] | cell scattering score, HPAF-II, 0.037 nM [10] | cell scattering score, HPAF-II, 0.111 nM [10] | cell scattering score, HPAF-II, 0.333 nM [10] | cell scattering score, HPAF-II, 1.000 nM [10] | cell scattering score, HPAF-II, 3.000 nM [10] | cell scattering score, HPAF-II, 9.000 nM [10] | also measured |
| --- | --- | --- | --- | --- | --- | --- | --- | --- | --- | --- | --- | --- | --- | --- | --- | --- | --- | --- | --- | --- | --- |
| chimeric llama-human IgG1 mAb 71D6 (antibody, V domains shown) VH: ELQLVESGGGLVQPGGSLRLSCAASGFTFSSYGMSWVRQAPGKGLEWVSAINSYGGSTSYADSVKGRFTISRDNAKNTLYLQMNSLKPEDTAVYYCAKEVRADLSRYNDYESYDYWGQGTQVTVSS VL: QPVLNQPSALSVTLGQTAKITCQGGSLGARYAHWYQQKPGQAPVLVIYDDDSRPSGIPERFSGSSSGGTATLTISGAQAEDEGDYYCQSADSSGSVFGGGTHLTVL | 1.48 nM | 66.8% | 0.95 nM | 68.3% | 128% | 43.6% | 38.6% | 103% | 100% | 90.5% | 121% | 0 score 0-4 | 1 score 0-4 | 2 score 0-4 | 3 score 0-4 | 4 score 0-4 | 4 score 0-4 | 4 score 0-4 | 4 score 0-4 | 4 score 0-4 | cell scattering score, MLP29, 0.001 nM [11]: 0 score 0-4; cell scattering score, MLP29, 0.004 nM [11]: 1 score 0-4; cell scattering score, MLP29, 0.012 nM [11]: 2 score 0-4; cell scattering score, MLP29, 0.037 nM [11]: 3 score 0-4; cell scattering score, MLP29, 0.111 nM [11]: 4 score 0-4; cell scattering score, MLP29, 0.333 nM [11]: 4 score 0-4; cell scattering score, MLP29, 1.000 nM [11]: 4 score 0-4; cell scattering score, MLP29, 3.000 nM [11]: 4 score 0-4; cell scattering score, MLP29, 9.000 nM [11]: 4 score 0-4; IMAX (maximum % competition) [12]: 98.3%; EMAX (% relative to control) [13]: 113% |
| chimeric llama-human IgG1 mAb 71C3 (antibody, V domains shown) VH: QLQLVESGGGLVQPGGSLRLSCAASGFTFSSHAMSWVRQAPGKGLEWVSAINSGGGSTSYADSVKGRFTISRDNAKNTLYLQMNSLKPEDTAVYYCAKELRFDLARYTDYEAWDYWGQGTQVTVSS VL: SYELTQPSALSVTLGQTAKITCQGGSLGSSYAHWYQQKPGQAPVLVIYDDDSRPSGIPERFSGSSSGGTATLTISGAQAEDEGDYYCQSADSSGNAAVFGGGTHLTVL | 31.9 nM | 50.2% | 31 nM | 51.3% | 102% | 59.6% | 61.6% | 99.8% | 100% | 89.2% | 115% | 0 score 0-4 | 0 score 0-4 | 0 score 0-4 | 0 score 0-4 | 1 score 0-4 | 2 score 0-4 | 3 score 0-4 | 4 score 0-4 | 4 score 0-4 | cell scattering score, MLP29, 0.001 nM [11]: 0 score 0-4; cell scattering score, MLP29, 0.004 nM [11]: 0 score 0-4; cell scattering score, MLP29, 0.012 nM [11]: 0 score 0-4; cell scattering score, MLP29, 0.037 nM [11]: 0 score 0-4; cell scattering score, MLP29, 0.111 nM [11]: 1 score 0-4; cell scattering score, MLP29, 0.333 nM [11]: 2 score 0-4; cell scattering score, MLP29, 1.000 nM [11]: 3 score 0-4; cell scattering score, MLP29, 3.000 nM [11]: 4 score 0-4; cell scattering score, MLP29, 9.000 nM [11]: 4 score 0-4; IMAX (maximum % competition) [12]: 93.6%; EMAX (% relative to control) [13]: 106% |
| chimeric llama-human IgG1 mAb 71D4 (antibody, V domains shown) VH: ELQLVESGGGLVQPGGSLRLSCAASGFTFSGYGMSWVRQAPGKGLEWVSDINSGGGSTSYADSVKGRFTISRDNAKNTLYLQMNSLKPEDTAVYYCAKDMRLYLARYNDYEAWDYWGQGTQVTVSS VL: SSALTQPSALSVTLGQTAKITCQGGSLGSSYAHWYQQKPGQAPVLVIYDDDSRPSGIPERFSGSSSGGTATLTISGAQAEDEGDYYCQSADSSGNAAVFGGGTHLTVL | 30.2 nM | 51.7% | 29.8 nM | 52.1% | 120% | 57.2% | 58.7% | 114% | 100% | 91.3% | 94.8% | 0 score 0-4 | 0 score 0-4 | 0 score 0-4 | 0 score 0-4 | 0 score 0-4 | 0 score 0-4 | 1 score 0-4 | 2 score 0-4 | 2 score 0-4 | cell scattering score, MLP29, 0.001 nM [11]: 0 score 0-4; cell scattering score, MLP29, 0.004 nM [11]: 0 score 0-4; cell scattering score, MLP29, 0.012 nM [11]: 0 score 0-4; cell scattering score, MLP29, 0.037 nM [11]: 0 score 0-4; cell scattering score, MLP29, 0.111 nM [11]: 0 score 0-4; cell scattering score, MLP29, 0.333 nM [11]: 0 score 0-4; cell scattering score, MLP29, 1.000 nM [11]: 1 score 0-4; cell scattering score, MLP29, 3.000 nM [11]: 2 score 0-4; cell scattering score, MLP29, 9.000 nM [11]: 2 score 0-4; IMAX (maximum % competition) [12]: 95.6%; EMAX (% relative to control) [13]: 107% |
